Laboratory results: patent US20230052312A1 (Genentech, published 2023)

How the values were obtained:
human PD-L1 [1] = biological target: T1, human PD-L1 (human, UniProt Q9NZQ7 19-290); test: flow cytometry on human blood cells (conclusion of Example 1)
T1 construct: whole, on cells; Endogenous PD-L1 on cells of human donors and patients; also called programmed death ligand 1

human PD-L1 [2] = biological target: T1, human PD-L1; test: flow cytometry on stimulated human whole blood, with or without Atezolizumab
Description: A Live Dead Kit (Invitrogen) was brought to room temperature. The kit included a near-IR fluorescent reactive dye and DMSO. 1× Pharm Lyse was made by mixing 10 mL of 10× Pharm Lyse (BD Biosciences) in 90 mL distilled water. After surface staining the cells in the test tubes, the tubes were vortexed and 3 mL of 1× Pharm Lyse was added to each test tube. The test tubes were vortexed again to enhance lysis of the cells in the presence of Pharm Lyse. The test tubes were then incubated for 15 minutes at room temperature in the dark. Following incubation, the test tubes were centrifuged for 5 minutes at 300 RCF/1500 to 1600 RPM. After centrifugation, the supernatant was aspirated as much as possible without disturbing the cell pellet. The bottom of each test tube was then flicked to break the cell pellet before washing the cells in 3 mL phosphate-buffered saline (PBS). The test tubes were centrifuged once more for 5 minutes at 300 RCF/1500 to 1600 RPM. The supernatant was then aspirated as before without disturbing the cell pellet. The bottom of each test tube was flicked to break the cell pellet and 1 mL of PBS was added to each test tube. A test tube was selected to perform a cell count using the BioRad TC20 cell counter. If the cell count was above 2 million live cells per mL of PBS in the tube, the concentration was adjusted to be 1 million live cells per mL and diluted accordingly using PBS. […]

T1 sequence (Q9NZQ7 19-290): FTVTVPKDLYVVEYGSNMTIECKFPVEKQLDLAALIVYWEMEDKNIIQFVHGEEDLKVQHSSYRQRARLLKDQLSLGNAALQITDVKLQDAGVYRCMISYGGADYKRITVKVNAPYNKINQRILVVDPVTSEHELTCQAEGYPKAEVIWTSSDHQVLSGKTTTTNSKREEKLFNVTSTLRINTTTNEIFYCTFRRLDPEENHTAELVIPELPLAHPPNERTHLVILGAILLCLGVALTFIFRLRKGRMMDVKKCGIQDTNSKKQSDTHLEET

Binder | binding result (human PD-L1 [1]) | binding result (human PD-L1 [2])
anti-PD-L1 14D3 antibody (antibody, V domains shown, also called clone 14D3; PD-L1 GNE) VH: QVQLQQSGPELVNPGASVKISCKASGYAFSTSWMNWVKQRPGKGLEWIGRIYPRDGDTYYNGKFKDKATLTADKSSNTAYMQLSSLTSEDSAVYFCTKNPGGYYFDYWGQGTTLTVSS VL: DIQMTQTTSSLSASLGDRVTINCRASQDIHTYLNWYQQKPDGTVKLLIFYTSRLHSGVPSRFSGSGSGTDYSLTISNLEQEDIATYFCQQVSSLPPWTFGGGTKVEIK | binds | –
anti-PD-L1 AF647 14D3 (antibody, V domains shown, also called anti-PD-L1 14D3 antibody labeled with AF647) VH: QVQLQQSGPELVNPGASVKISCKASGYAFSTSWMNWVKQRPGKGLEWIGRIYPRDGDTYYNGKFKDKATLTADKSSNTAYMQLSSLTSEDSAVYFCTKNPGGYYFDYWGQGTTLTVSS VL: DIQMTQTTSSLSASLGDRVTINCRASQDIHTYLNWYQQKPDGTVKLLIFYTSRLHSGVPSRFSGSGSGTDYSLTISNLEQEDIATYFCQQVSSLPPWTFGGGTKVEIK | – | binds
anti-PD-L1 PE 14D3 (antibody, V domains shown, also called anti-PD-L1 14D3 antibody labeled with PE) VH: QVQLQQSGPELVNPGASVKISCKASGYAFSTSWMNWVKQRPGKGLEWIGRIYPRDGDTYYNGKFKDKATLTADKSSNTAYMQLSSLTSEDSAVYFCTKNPGGYYFDYWGQGTTLTVSS VL: DIQMTQTTSSLSASLGDRVTINCRASQDIHTYLNWYQQKPDGTVKLLIFYTSRLHSGVPSRFSGSGSGTDYSLTISNLEQEDIATYFCQQVSSLPPWTFGGGTKVEIK | – | binds
